Measured values as given in patent US20200048631.

Assays:
Gal4-VP16 = assay: cell_activity; conditions: 0.5 ug Gal4 plasmid, no tTA
[1] = tested on: tTA (tetracycline transactivator, TetR-VP16); assay: cell_activity; conditions: 0.5 ug tTA plasmid, no Gal4
[2] = 0.1 without TF, 16.0 with both TFs at 0.5 ug

Substance	activity (Gal4-VP16; <0.1 without TF, HEK293FT, synergy with tTA) [% ON cells]	activity ([1]; <0.1 without TF, HEK293FT, synergy with Gal4) [% ON cells]	activity (Gal4-VP16; [2]) [% ON cells]	activity [1, 2] [% ON cells]
H1 hybrid promoter pT2U2T2U2 (TetO and UAS, CMV minimal promoter)	9.2	3.1	–	–
H2 hybrid promoter pT2U3 (TetO and UAS, CMV minimal promoter)	–	–	4	0.8
